Measurements: publication PMC4934754, “HCF1 and OCT2 Cooperate with EBNA1 To Enhance OriP-Dependent Transcription and Episome Maintenance of Latent Epstein-Barr Virus”

T1: His-OCT2 DBD (HTRF) (UniProt P09086-3 175-345)
T1 sequence: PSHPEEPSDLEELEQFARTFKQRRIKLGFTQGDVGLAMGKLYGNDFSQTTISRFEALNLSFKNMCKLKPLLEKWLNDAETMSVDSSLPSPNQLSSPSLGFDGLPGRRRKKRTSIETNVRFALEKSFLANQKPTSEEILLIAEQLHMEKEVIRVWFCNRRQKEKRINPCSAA

T2: OCT2 DBD (UniProt P09086-3 175-345)
T2 sequence: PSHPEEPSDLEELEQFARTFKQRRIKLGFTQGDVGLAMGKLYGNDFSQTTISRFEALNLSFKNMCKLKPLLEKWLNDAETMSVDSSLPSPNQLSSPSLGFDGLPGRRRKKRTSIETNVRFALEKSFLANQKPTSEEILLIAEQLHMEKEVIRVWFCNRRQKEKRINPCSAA


Key:
EBNA1 DBD;OCT2 DBD [1] = biological target: T3, EBNA1 DBD;OCT2 DBD (Epstein-Barr virus;human?, UniProt P03211;P09086-3 459-607;175-345, |); experiment: HTRF; 15 nM His-EBNA1, 2.5-40 nM unlabeled OCT2; OCT2 stimulates EBNA1 binding; Buffer not given (EMSA as in cited ref. 32; HTRF and ALPHA in similar conditions; 1 h incubation for HTRF); conditions: protein: recombinant;recombinant; tags: His;none (His-SUMO removed by SUMO protease); copies: 1;1; label: 5' biotin, streptavidin Eu3+ cryptate
His-OCT2 DBD (HTRF) = biological target: T1, His-OCT2 DBD (HTRF); experiment: HTRF; 0-80 nM OCT2; Buffer not given (EMSA as in cited ref. 32; HTRF and ALPHA in similar conditions; 1 h incubation for HTRF); conditions: protein: recombinant; label: 5' biotin, streptavidin Eu3+ cryptate
EBNA1 DBD;OCT2 DBD [2] = biological target: T3, EBNA1 DBD;OCT2 DBD; experiment: EMSA; EBNA1 titration with 40 nM OCT2 or OCT2 titration with 15 nM EBNA1; saturated complex distinct from EBNA1 alone; Buffer not given (EMSA as in cited ref. 32; HTRF and ALPHA in similar conditions; 1 h incubation for HTRF); conditions: protein: recombinant;recombinant; tags: His;none (His-SUMO removed by SUMO protease); copies: 1;1; label: 32P
EBNA1 DBD = EBNA1 DBD (Epstein-Barr virus, UniProt P03211 459-607); experiment: EMSA; no OCT2; low nanomolar affinity, two major species; Buffer not given (EMSA as in cited ref. 32; HTRF and ALPHA in similar conditions; 1 h incubation for HTRF); conditions: protein: recombinant; tags: His; label: 32P
OCT2 DBD = biological target: T2, OCT2 DBD; experiment: EMSA; single major species at 40 nM OCT2, larger complex at higher concentration; Buffer not given (EMSA as in cited ref. 32; HTRF and ALPHA in similar conditions; 1 h incubation for HTRF); conditions: protein: recombinant; tags: none (His-SUMO removed by SUMO protease); label: 32P

T3 sequence (P03211 459-607, one chain of several): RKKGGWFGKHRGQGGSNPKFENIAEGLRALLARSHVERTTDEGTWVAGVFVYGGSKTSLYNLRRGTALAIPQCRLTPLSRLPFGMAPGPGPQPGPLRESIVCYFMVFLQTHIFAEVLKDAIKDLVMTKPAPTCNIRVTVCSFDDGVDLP
Sequence of EBNA1 DBD (P03211 459-607): as the sequence (P03211 459-607, one chain of several) above

| Binder | binding result (EBNA1 DBD;OCT2 DBD [1]) | binding result (His-OCT2 DBD (HTRF)) | binding result (EBNA1 DBD;OCT2 DBD [2]) | binding result (EBNA1 DBD) | binding result (OCT2 DBD) |
| --- | --- | --- | --- | --- | --- |
| 2xFR (60 bp), biotin (dsDNA) DNA 1: ATTAGGATAGCCTATGCTACCCAGATATAGATTAGGATAGCATATGCTACCCAGATATAG DNA 2: CTATATCTGGGTAGCATATGCTATCCTAATCTATATCTGGGTAGCATAGGCTATCCTAAT | binds | binds | – | – | – |
| 2xFR (60-mer), 32P (dsDNA) DNA 1: ATTAGGATAGCCTATGCTACCCAGATATAGATTAGGATAGCATATGCTACCCAGATATAG DNA 2: CTATATCTGGGTAGCATATGCTATCCTAATCTATATCTGGGTAGCATAGGCTATCCTAAT | – | – | binds | binds | binds |
